# Source: patent US20250163183A1 (COAGULANT THERAPEUTICS, published 2025)
# T1: FVIIa (UniProt P08709 61-466)
# T1 construct: also called factor VIIa
# T1 sequence (looked up): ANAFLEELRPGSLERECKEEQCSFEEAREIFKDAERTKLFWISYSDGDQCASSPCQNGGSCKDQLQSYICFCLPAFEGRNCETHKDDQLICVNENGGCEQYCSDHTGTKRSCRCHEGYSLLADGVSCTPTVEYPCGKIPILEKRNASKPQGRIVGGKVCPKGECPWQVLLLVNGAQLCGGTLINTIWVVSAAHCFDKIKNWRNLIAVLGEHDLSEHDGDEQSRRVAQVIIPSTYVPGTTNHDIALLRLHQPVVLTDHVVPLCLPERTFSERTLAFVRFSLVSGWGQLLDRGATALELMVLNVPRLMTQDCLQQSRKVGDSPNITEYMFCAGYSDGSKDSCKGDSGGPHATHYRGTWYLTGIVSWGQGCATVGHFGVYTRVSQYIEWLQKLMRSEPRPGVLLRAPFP
# Assays:
# [1] = biological target: T2, human protein C (PC) zymogen (human, UniProt P04070 43-197; P04070 200-461); assay: ELISA
# T2 construct: Bought
# T2 sequence (P04070 43-197, chain 1 of 2): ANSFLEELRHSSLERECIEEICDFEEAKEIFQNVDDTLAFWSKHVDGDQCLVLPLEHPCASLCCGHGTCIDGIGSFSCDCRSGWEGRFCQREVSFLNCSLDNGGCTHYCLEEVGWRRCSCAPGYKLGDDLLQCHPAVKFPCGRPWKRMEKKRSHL
# T2 sequence (P04070 200-461, chain 2 of 2): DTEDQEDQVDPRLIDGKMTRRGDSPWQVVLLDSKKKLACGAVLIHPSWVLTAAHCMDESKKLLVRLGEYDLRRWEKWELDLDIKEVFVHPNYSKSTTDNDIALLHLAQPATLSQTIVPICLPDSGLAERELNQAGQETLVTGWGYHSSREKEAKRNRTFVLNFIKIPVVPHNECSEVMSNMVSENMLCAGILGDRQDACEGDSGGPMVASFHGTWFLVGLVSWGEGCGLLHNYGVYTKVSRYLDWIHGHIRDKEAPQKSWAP
# [2] = biological target: T3, human activated protein C (APC) (human, UniProt P04070 43-461); assay: cell-based or functional assay
# T3 sequence (P04070 other isoform, or with tags, fused parts or gaps): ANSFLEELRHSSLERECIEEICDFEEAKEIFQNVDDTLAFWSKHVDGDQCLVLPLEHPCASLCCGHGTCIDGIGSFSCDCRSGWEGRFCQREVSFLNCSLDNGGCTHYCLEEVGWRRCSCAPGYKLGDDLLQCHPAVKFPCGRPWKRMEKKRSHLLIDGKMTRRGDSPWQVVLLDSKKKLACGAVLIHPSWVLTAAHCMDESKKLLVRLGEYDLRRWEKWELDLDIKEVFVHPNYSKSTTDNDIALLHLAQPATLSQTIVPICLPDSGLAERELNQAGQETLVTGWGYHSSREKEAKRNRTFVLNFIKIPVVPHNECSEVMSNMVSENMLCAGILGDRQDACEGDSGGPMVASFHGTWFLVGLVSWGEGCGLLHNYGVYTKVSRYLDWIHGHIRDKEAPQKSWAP
# [3] = biological target: T3, human activated protein C (APC); assay: cell-based or functional assay; remark: listed apart in the source
# [4] = biological target: T3, human activated protein C (APC); assay: BLI, VHH captured via anti-V5, APC in solution
# FXIa = biological target: T4, FXIa (UniProt P03951 19-625); assay: ELISA, FXIa coated at 10 µg/mL, HRP-anti-V5, n=3
# T4 construct: also called factor XIa
# T4 sequence (P03951 19-625 limits assumed): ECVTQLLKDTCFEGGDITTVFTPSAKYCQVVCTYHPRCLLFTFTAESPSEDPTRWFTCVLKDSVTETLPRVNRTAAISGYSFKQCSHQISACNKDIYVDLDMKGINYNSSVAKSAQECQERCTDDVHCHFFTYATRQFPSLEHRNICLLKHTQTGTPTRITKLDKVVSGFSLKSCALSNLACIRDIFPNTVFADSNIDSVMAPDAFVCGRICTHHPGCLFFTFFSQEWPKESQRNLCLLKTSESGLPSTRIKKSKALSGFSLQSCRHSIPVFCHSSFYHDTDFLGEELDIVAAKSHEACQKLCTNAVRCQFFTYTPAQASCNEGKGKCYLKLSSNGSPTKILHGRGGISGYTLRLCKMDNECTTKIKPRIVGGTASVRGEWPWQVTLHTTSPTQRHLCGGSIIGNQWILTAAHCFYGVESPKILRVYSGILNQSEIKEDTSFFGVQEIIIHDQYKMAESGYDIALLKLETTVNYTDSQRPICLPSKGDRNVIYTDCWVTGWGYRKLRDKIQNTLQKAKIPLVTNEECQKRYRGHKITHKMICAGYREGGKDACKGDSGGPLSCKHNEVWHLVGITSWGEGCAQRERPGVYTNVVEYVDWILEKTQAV
# FVIIa = biological target: T1, FVIIa; assay: ELISA, FVIIa coated at 10 µg/mL, HRP-anti-V5, n=3
# [5] = biological target: T3, human activated protein C (APC); assay: BLI; end tied to LP12 by Table 5; lower end of the koff range, LP9 set apart; LP12
# [6] = biological target: T3, human activated protein C (APC); assay: BLI (Octet): nanobody captured on anti-V5 sensor, dipped in 500 nM APC; buffer sensor reads 0.06
# [7] = biological target: T2, human protein C (PC) zymogen; assay: ELISA screen, PC-coated wells, OD450, n=2
# [8] = biological target: T3, human activated protein C (APC); assay: BLI; end tied to LP8 by Table 5; upper end of the kon range; LP8
# [9] = biological target: T3, human activated protein C (APC); assay: BLI; end tied to LP2 by Table 5; lower end of the kon range; LP2
binding result [1],"APC-mediated histone H3 cleavage, 500 nM nanobody [2]",APC plasma T1/2 (min; mean) [3],Kd [4],koff [4],kon [4],binding result (FXIa),binding result (FVIIa),koff [5],APC binding (nm) [6],"Protac-APTT clotting time, 300 nM nanobody [2]",binding result [7],kon [8],kon [9],Binder
no binding,< 75 % residual activity,50.1 min,0.68 nM,0.00026 s⁻¹,380000 M⁻¹ s⁻¹,no binding (tested: 2 µg/mL),no binding (tested: 2 µg/mL),0.000259 s⁻¹,0.31 nm,,,,,"LP12 (SR16983-R3-P3-F06) (VHH, not shown: small tags and cut ends, Llama VHH purified from E. coli periplasm) VHH: QLQLVESGGGLVQAGDSLRLSCTSSGLTASTYAMAWFRQAPGKEREFVAVVDWKGDTTYANSVKGRFTLSRDNGKNTNYLQMNSLQPEDTALYYCAARGSPGYVARLYAHWGRGTQVTVSS"
,< 75 % residual activity,,2.8 nM,0.0017 s⁻¹,620000 M⁻¹ s⁻¹,no binding (tested: 2 µg/mL),no binding (tested: 2 µg/mL),,0.32 nm,> 90%,no binding,622000 M⁻¹ s⁻¹,,"LP8 (SR16983-R3-P3-A04) (VHH, not shown: small tags and cut ends, Llama VHH purified from E. coli periplasm) VHH: QLQLVESGGGLVEAGGSLRLSCAASGRTFSSGALGWFRQAPGKEREFVATIRWSDERTQYSEFVKGRFTISRDNAKNTVYLQMNNLQPEDTAVYYCRSTVGNLLYWGQGTQVTVSS"
,< 75 % residual activity,38.2 min,8.8 nM,0.0011 s⁻¹,130000 M⁻¹ s⁻¹,no binding (tested: 2 µg/mL),no binding (tested: 2 µg/mL),,0.29 nm,> 90%,no binding,,126000 M⁻¹ s⁻¹,"LP2 (SR16983-R2-P3-H10) (VHH, not shown: small tags and cut ends, Llama VHH purified from E. coli periplasm) VHH: QVQLVESGGGLVQAGGSLRLSCAASGRPISAYTWAWFRQAPGKEREFVAAITSSAGTTYYADSVRGRFTISRDNAENTVYLRMNTLKPEDTAVYYCAADDQGDNWYDHWGQGTQVTVSS"
